Source: patent publication US20240317844A1

Target: survivin (UniProt O15392)
Assay: method not stated

B1: mAb 2C2E7 (antibody, V domains shown)
VH: QIQLVQSGPELKKPGETVKISCKASGYTFTTYGMSWVKQAPGRGLKWMGWINPYSGVPTYAVDFKGRFAFSLETSASTAYLQINNLKNEDTATYFCARGGRRGDFGYWGQGTTLTVSS
VL: QIGLTQSPAIMSASPGEKVTMTCSASSSISYMHWYQQKPGTSPKTWIYDTSKLASGVPARFSGSGSGTSYSLTISSMEAEDAATYYCHQRSSHHTFGGGTKLEIK
With B1 the Kd was 0.56 nM.
